T1: His-SPL7 (SBP domain) (Arabidopsis, UniProt Q8S9G8 122-228)
T1 sequence: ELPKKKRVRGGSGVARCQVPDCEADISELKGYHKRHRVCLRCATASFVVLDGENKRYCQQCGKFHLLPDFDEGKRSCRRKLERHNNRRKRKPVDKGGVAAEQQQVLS


Experiments:
His-SPL7 (SBP domain) [1] = target: T1, His-SPL7 (SBP domain); assay: EMSA; Chemiluminescent EMSA Kit (Beyotime), manufacturer's protocol; buffer, salt, pH and temperature not stated; settings: protein: recombinant; tags: 6xHis (pET-28a); label: 5' biotin (probe); blunt
His-SPL7 (SBP domain) [2] = target: T1, His-SPL7 (SBP domain); assay: competition; cold mutant against biotin-N1; Chemiluminescent EMSA Kit (Beyotime), manufacturer's protocol; buffer, salt, pH and temperature not stated; settings: protein: recombinant; tags: 6xHis (pET-28a); blunt

| Binder | binding result (His-SPL7 (SBP domain) [1]) | binding result (His-SPL7 (SBP domain) [2]) |
| --- | --- | --- |
| ProCITF1-G (dsDNA) DNA 1: CCATTTGTACTGCATAAAGACCCCCCACGTACATACAT DNA 2: ATGTATGTACGTGGGGGGTCTTTATGCAGTACAAATGG | binds |  |
| mProCITF1-G (dsDNA) DNA 1: CCATTTGGCCTGCATAAAGACCCCCCACGGCCATACAT DNA 2: ATGTATGGCCGTGGGGGGTCTTTATGCAGGCCAAATGG |  | no binding |
| ProFRO5-G (dsDNA) DNA 1: CTATCATGTACGTTTTTAAGAGTTTCGTACAAATTCACGT DNA 2: ACGTGAATTTGTACGAAACTCTTAAAAACGTACATGATAG | binds |  |
| ProCOPT2-G (dsDNA) DNA 1: GATGATGTACTTGTACTACAGTACAACACATAC DNA 2: GTATGTGTTGTACTGTAGTACAAGTACATCATC | binds |  |
| ProFRO4-G (dsDNA) DNA 1: ACCCGTACAACGTATTCGTTACGAACCAATTTCTA DNA 2: TAGAAATTGGTTCGTAACGAATACGTTGTACGGGT | binds |  |

Source: article PMC9266912, “CITF1 Functions Downstream of SPL7 to Specifically Regulate Cu Uptake in Arabidopsis”
